A short description of this data set: soluble on expression in E. coli; label from the status in PepcDB or PDB records.
Take “MKGGDRAYTRGPSLGWLFAKCCCCFPCRDAYSHSSSENGGKSESVANLQAQPSLNSIHSSPGPKRSTNTLKKWLTSPVRRLNSGKADGNIKKQKKVRDGRKSFDLGSPKPGDETTPQGDSADEKSKKGWGEDEPDEESHTPLPPPMKIFDNDPTQDEMSSSLLAARQASTEVPTAADLVNAIEKLVKNKLSLEGSSYRGSLKDPAGCLNEGMAPPTPPKNPEEEQKAKALRGRMFVLNELVQTEKDYVKDLGIVVEGFMKRIEEKGVPEDMRGKDKIVFGNIHQIYDWHKDFFLAELEKCIQEQDRLAQLFIKHERKLHIYVWYCQNKPRSEYIVAEYDAYFEEVKQEINQRLTLSDFLIKPIQRITKYQLLLKDFLRYSEKAGLECSDIEKAVELMCLVPKRCNDMMNLGRLQGFEGTLTAQGKLLQQDTFYVIELDAGMQSRTKERRVFLFEQIVIFSELLRKGSLTPGYMFKRSIKMNYLVLEENVDNDPCKFALMNRETSERVVLQAANADIQQAWVQDINQVLETQRDFLNALQSPIEYQRKERSTAVMRSQPARLPQASPRPYSSVPAGSEKPPKGSSYNPPLPPLKISTSNGSPGFEYHQPGDKFEASKQNDLGGCNGTSSMAVIKDYYALKENEICVSQGEVVQVLAVNQQNMCLVYQPASDHSPAAEGWVPGSILAPLTKATAAESSDGSIKKSCSWHTLRMRKRAEVENTGKNEATGPRKPKDILGNKVSVKETNSSEESECDDLDPNTSMGILNPNFIQEVAPEFLVPLVDVTCLLGDTVILQCKVCGRPKPTITWKGPDQNILDTDNSSATYTVSSCDSGEITLKICNLMPQDSGIYTCIATNDHGTTSTSATVKVQGVPAAPNRPIAQERSCTSVILRWLPPSSTGNCTISGYTVEYREEGSQIWQQSVASTLDTYLVIEDLSPGCPYQFRVSASNPWGISLPSEPSEFVRLPEYDAAADGATISWKENFDSAYTELNEIGRGRFSIVKKCIHKATRKDVAVKFVSKKMKKKEQAAHEAALLQHLQHPQYITLHDTYESPTSYILILELMDDGRLLDYLMNHDELMEEKVAFYIRDIMEALQYLHNCRVAHLDIKPENLLIDLRIPVPRVKLIDLEDAVQISGHFHIHHLLGNPEFAAPEVIQGIPVSLGTDIWSIGVLTYVMLSGVSPFLDESKEETCINVCRVDFSFPHEYFCGVSNAARDFINVILQEDFRRRPTAATCLQHPWLQPHNGSYSKIPLDTSRLACFIERRKHQNDVRPIPNVKSYIVNRVNQGT”: the “soluble on expression in E. coli” value is “soluble”.

In the case of “AVVNTDDYVTRTSIFYHAGSSRLLTVGDPYFRVPAGGGNKQDIPKVSAYQYRVFRVQLPDPNKFGLPDTSIYNPETQRLVWACAGVEIGRGQPLGVGLSGHPFYNKLDDTESSHAATSNVSEDVRDNVSVDYKQTQLCILGCAPAIGEHWAKGTASKSRPLSQGDCPPLELKNTVLEDGDMVDTGYGAMDFSTLQDTKCEVPLDICQSICKYPDYLQMSADPYGDSMFFCLRREQLFARHFWNRAGTMGDTVPQSLYIKGTGMRASPGSCVYSPSPSGSIVTSDSQLFNKPYWLHKAQGHNNGVCWHNQLFVTVVDTTRSTNLTICASTQSPVPGQYDATKFKQYSRHVEEYDLQFIFQLCTITLTADVMSYIQSMNSSILEDWNGGSGGNKDPYDKLKFWNVDLKEKFSLDLDQYPLGRKFLVQAGL”, the “soluble on expression in E. coli” value is recorded as “soluble”. As for “MRLEIPNHTERFGVVRLHEVQRILELDSGRVRDESPAVGLRRLDDADLRDVLEQTAIVVPTRNERLKLLEGVLSGIPHEALILVASNSSPDRFQMERDLLEEFAHLTERPALIFHQKDPALAEALRAGGYPHPIGEDGLVRSGKAEGMILALVFAALSGRRYVGFIDADNYFPGAVWEYVRAYAAGFLMAKTPFAMVRILWRYKPKLTEDEGVVFRRYGRVSERNNRALNQLIGGVSGFETDVVKTANAGEHAMSLGLALRLPLASGYAVEPQELVSLLELYGGVFPLEDEEVLQHGVEIFQIETRNPALHENKGDEHIRDMLLACLATVYHSKLATEEVRQSVLEELQAAGALAPGEEPPPPVLYPPLSSLDLQAVRKALRGHFSRFRVP”, the entry is “soluble”; as for “MGSDKIHHHHHHAACQDEDHTVPTLPSGNDPEINDPVVEFYDWEKNRTELLTSTDMVLLYGGGHHRTPYTWDKERVSSYIRYVDTDNQSHWLFDSFLFLEIMDTGTGGANKMFAKGYNLESANQADWTKLIDYYFQSETGIGALDASVKEASAILGTPRQKRQIVISIPEPIVYQHPEQASSSTKYWGKIDNQTLDFSNSADRIKACKWYIDQVRAKFNEKNYQHVELAGFYWLAEKATDTRDILNAVAIYLNKLKYSFNWIPYYGADGYNQWKSLGFNYAYFQPNYFFNESVPDSRLEDACQKALTYDMHMELEFDDNALNSRGKAYRLKNYMSAFKKHGIWEKKRLAYYQGSASLLTLKKSGNAADTQLYHEFCNFVISRPIRSSH”, “not soluble”; as for “GLVAPGYKMATVAVDHLLGNTESKFEGADMSAKLKLLGVKVGSIGDANGRTEGCKSYVYQNEEQEVYKRLIVSEDNKKLLGAVLVGDTSDYGDLLQLMLNEIDLPEHPDALILPAHAGAEKPALGADALPESAVICSCFDVTKGKIAQAVADGHHTLGDIK”, “not soluble”. To “MGSDKIHHHHHHMTTVLEKFEKLKTEHAPGQEVRQKTPAFEELLIGEKLEGRTVDFSHGDVDAFLPTPGAFEEFSDGVHSGGKQAYTVYRGLADLREILSVRLTSFTGAPVNAADNLIITPGTQGALFLSVAATVAAGDKVAIVQPDYFANRKLVEFFEAEMLPVQLDYLGTDKAAGLDLNQLEAAFRDGARVFVFSNPNNPTGAVYSTEEIDAIAALADRYGAMVIVDQLYSRLLYEGTEYQHLRAVGGTGRDNVITIMGPSKTESLSGYRLGVAFGPSSVIERMERLQAIVSLRAAGYNQAVLQTWFSEPDGWMSERIKLHQAIRDDLLTRFRARADVAVRTPQAGSYMFAKLPRLRVSPIDFVKILRHQATVIVTPGSEFSPHTASSIRLNFSQNHAAATGAVERLVTLIERYREARP” belongs “not soluble”; to “MMDLHTHTVYSDGIGLIRDNVAWAEKRGLKIVGISDHIHFFTPSRFSAYINEINVIKEESEIVVLAGIEANILENGPDITDEFRKKLDYAIASVHEWFGRNGTHEYINYVKKAIMDDNVDIIGHFGNSFPWIGYPTREEIDEILDLAEAYGKAFEISARYKVPDLEFIRECVKRGIKLSLATDAHRPEDVGKVSWSLKMLEKAGGTKEDLIFSEYL”, “soluble”; to “MIVAFCLYKYFPFGGLQRDFMRIASTVAARGHHVRVYTQSWEGDCPKAFELIQVPVKSHTNHGRNAEYYAWVQNHLKEHPADRVVGFNKMPGLDVYFAADVCYAEKVAQEKGFLYRLTSRYRHYAAFERATFEQGKSTKLMMLTDKQIADFQKHYQTEPERFQILPPGIYPDRKYSEQIPNSREIYRQKNGIKEQQNLLLQVGSDFGRKGVDRSIEALASLPESLRHNTLLFVVGQDKPRKFEALAEKLGVRSNVHFFSGRNDVSELMAAADLLLHPAYQEAAGIVLLEAITAGLPVLTTAVCGYAHYIADANCGTVIAEPFSQEQLNEVLRKALTQSPLRMAWAENARHYADTQDLYSLPEKAADIITGGLDG”, “soluble”. As for “GTRKCELQGLWRNELGSNMTISALDVAGTFSGSYQTAVTATNKQILVSPLKGAQQPPGTKGQQPTFGFTVQWQFADSTTVFVGQCFVDRRGKEMLEMAWLLREEVPSRKDTWKATRVGTNVFTRVK”, the entry is “soluble”. For “MHHHHHHMKNVIFEDEEKSKMLARLLKSSHPEDLRAANKLIKEMVQEDQKRMEKISKRVNAIEEVNNNVKLLTEMVMSHSQGGAAAGSSEDLMKELYQRCERMRPTLFRLASDTEDNDEALAEILQANDNLTQVINLYKQLVRGEEVNGDATAGSIPG”, the “soluble on expression in E. coli” value is reported as “soluble”. As for “MGSDKIHHHHHHMSKTLSILVLHRVPFENVGYDQVIDHDLHQVTYLGLASPMSKLPKDLPCHKVVIEQLDLLVDSAVALTQEQGIEFDYIIGVSEYQLFDAALIRERLNIQGPKPHDVLRVRDKLVMKHQVQAAGLHVPRFFELAEVMTQELTGLQQLILKPKDGASSENVIKYADLEALRSAITSSATGIPVLDNDKNFKNFEVEEFVEGPILHLDGIVQGGVIDTFVASTYEGTCLAFAEGEALGSYQIQTEPRLMDWAQAVITALAIDSGAFHLEVIESGERLVFLEIGHRAGGANVVRTFELRTGINLHHANLATQLRLPIHRQEVNTHKSYGWFVFPGHHYDWDKCRLEGHEDIKIHHQMFEWNQLSNEQPLTKHITYQKKEVPAAGIIQGDDSIQVQNFMQRVLQYIQVQEAV”, the entry is “not soluble”. To “MGSDKIHHHHHHVTSVSLGMPSAPPPVLAPRRKTRQIKVGSVGVGSDSPISVQSMTTTPTTDINATLQQIAELTASGCDIVRVACPSADDAEALPIIARKSQIPVIADIHFQPKYVFAAIEAGCAAVRVNPGNIRKFDDQVKEIARAAKDHGTSIRIGVNAGSLEPGILKKYGKATPEALVESAVWEASLFEEHGFHDFKISVKHNDPVIMVAAYEMLAEKGDWPLHLGVTEAGPAFQGTIKSATAFGALLSRGIGDTIRVSLSAPPVEEIKVGNQILQSLNLRPRKLEIVSCPSCGRAQVDVYTLAEQVTAGLEGMEIPLRVAVMGCVVNGPGEAREADLGVASGNGKGQIFVKGEVIKTVPESEIVETLIEEAMRIAEEMGEADGEDAVKGSPVVSVS” belongs “not soluble”; to “MGSDKIHHHHHHALLWFSRFQRTGKLCVSLGWLLLTLLSLQPVADSLLKPIEDTYPTWRGEQPVNYVVVLGGGYTWNPEWAPSSNLINNSLPRLTEGIRLWQANPGSKMIFTGAAAKTNPVSTAEAGARVAESLGVPRSDIIVLDRPKDTEEEALAVKRAIGDAPFLLVTSASHLPRAMIFFRHAGLDPLPAPANQLAVTSPLNPWERAIPSPVWLMHSDRVGYETLGRVWQWLKGSSGEPGQE”, “not soluble”; to “MNVMRHSWLAVAGIAGLLAFPPVDACTLWGAAGTASMEGSLLAKNRDWKPDHAQSLRLLHPEHGYAYLGLYADNGSEPGIKAGVNQKGLAVVAAEASSLPRALRADSARHGVLTRLLRDYGSLDEVASAADKLFAQARPVFLLLADAGGLMQVEIGQHGRYRLIRQQSGTLAHTNHYADTSLLDGAQTIGPSSQARLERIRFLLDQHPAHTLSEFERLSRDRHDGPDNSLWRSGREHTLAGWRIALPAGAPPRLQLTLANPGRAERDGDYALDSAFWAQPARTLLPKLAAALEHHHHHH”, “soluble”. To “MSMLQRPGYPNLSVKLFDSYDAWSNNRFVELAATITTLTMRDSLYGRNEGMLQFYDSKNIHTKMDGNEIIQISVANANDINNVKTRIYGCKHFSVSVDSKGDNIIAIELGTIHSIENLKFGRPFFPDAGESIKEMLGVIYQDRTLLTPAINAINAYVPDIPWTSTFENYLSYVREVALAVGSDKFVFVWQDIMGVNMMDYDMMINQEPYPMIVGEPSLIGQFIQELKYPLAYDFVWLTKSNPHKRDPMKNATIYAHSFLDSSIPMITTGKGENSIVVSRSGAYSEMTYRNGYEEAIRLQTMAQYDGYAKCSTIGNFNLTPGVKIIFNDSKNQFKTEFYVDEVIHELSNNNSVTHLYMFTNATKLETIDPVKVKNEFKSDTTTEESSSSNKQ” belongs “soluble”.

(Values after the DeepSol protein solubility set.)
